Test: yeast display, Sf9 membrane polyspecificity reagent, FACS + sequencing; frameworks hold sequencing errors
Procedure, shortened: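 Sorting gates, low and high (top ~1%), were placed on anti-HA fluorescence to track expression and on streptavidin fluorescence to track reagent binding. A clone's polyreactivity label is taken from the gate it came out of. The reagent was 10% biotinylated, detergent-solubilized Sf9 membrane, applied for 1 hour at 4 °C to galactose-induced yeast display cells.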

| Sequence | polyreactivity (PSR sort gate) |
| --- | --- |
| QVQLVESGGGLVQAGGSLRLSCDASGSTFASYAMGWYRQAPGKERELVAAIRWSGGTTYYADSVKGRFTISRDNAKNTVYLLMNSLKTEDTAVYYCNADRYYLYYYWGQGTQVTVSS | low polyreactivity |
| QVQLVESAGGLVQAGGSLRLSCAASGSILDRYAMGWDRQAPGKERELVAAITYSSGRTYYADSVKGRFTISRDNAKNTVYLQMNSLKPEDTAVYYCAARPFKRSNGGGQYYYWGQGTQLTVSS | high polyreactivity |
| QVQLVESGGGLVQAGGSLRLSCAASGSIFVYYAMGWYRQAPGKERELVAAISSGDGTNYADSVKGRFTISRDNAKNTVYLQMNSLKPEDTAVYYCNADLDSGYGSYDYWGQGTEVTVSS | low polyreactivity |
| QVQLVETGGGLVQAGGSLLLSCAASGNTFQYYAMGCYRQAPGKERELVAAITTGGSTNYADSVKGRFTISRDNAKNTVYLQMNSLKPEDTAVYYCAARGCVSKRISDYWGQGTQVTVSS | low polyreactivity |
| QVQLVESGGGLLQAGGSHRLSCAASGRIFPAYAMGWYRQAPGKERELVASNRRGGITYADSVKGRFTISRDNAKNTVYLQMNSLKPEDTAVYYCNADYRGWGYHMDYWGQGTQVTVSS | low polyreactivity |
| QVQLVESGGGLVQAGGSLRLSCAASGRTFHGYAMGWYRQAPGKERELVARINWSDGRTYYADSVKGRFTISRDNAKNTVYLQMNSLKPVDTAVYYCAADKNVSYAPAWFYYWGQGTQVTVSS | low polyreactivity |
| QVQLVESGGGLVQAGCSLRLSCAASGLIIPVYVMGWYRQAPGKERELVADITTVGSTYADSVKGRFTISRDNAKNTVYFQMNSLKPEDTAVYYFADDPPAQQYWWDHGNYWGQGTQVTVSS | low polyreactivity |
| QVQLVESGGGLVQAGGSLRLSCAASGFTSAPNAMGWYRQAPGKERELVAAITSSTGRTRYADSVKGRFTISRDNAKNTVYLQMNSLKPEDTAVYYCAVKLLFRGTYEYWGQGTQVTVSS | low polyreactivity |
| QVQLVESGGGLVQAGGSLRISCAASGSTFDPYGMGWYRQAPGTERELVAAITSSGRTNYADSVKGRFTISRDNAKNTVYLQMNSLKPEDTAVYYCATRKERYFYRGYEYWGQGTQVTVSS | low polyreactivity |
| QVQLVESGGGLVQAGGSLRLSCAASGRIFKLYAMGWDRQAPGKERELVAAISKSGGNTYADSVKGRFTISRDNAKNTVYLQMNSLKPEDTAVYYCAATVQSTSDPFDYWGQGTQVTVSS | low polyreactivity |
| QVQLVESGGGLVQAGGSLRLSCAASGSIFSLYAMGWYRQAPGKERELVAAISSSGTSTYYADSVKGRFTISRDNAKNTVYLQMYSLKTEDTAVYYCNAYRRRATYNGDYWGQGTQVTVSS | high polyreactivity |
| QVQLVESGGGLVQAGGSLRLICAASGSTFFYNAMGWYRQAPGKEREFVAAIRWRGGSTYYADSVKGRFTISRDNAKNTVYLQMNSLKPEDTAVYYCAAVYYRWEYDYWGQGTQVTVSS | high polyreactivity |
| QVQLVESGGGLVQAGGSLSLICAAYGTTFEYYAMRWYRQAPGKERELVATISIDGRTNYADSVKGRFTISRDNAKNTVYLQMISLKPEDTAVYYCAARPYWRHRYDYWGQGTQVTVSS | low polyreactivity |
| QVQLVESGGGLVQAGGSLRLSCAASGSIFQWYAMGWYRQAPGKERELVAAITISGGSTHYADSVKGRFTISRDNAKNTVYLQMNSLKPEDTAVYYCATPRYPSYDYWGQGTQVTVSS | low polyreactivity |
| QVQLVESGGGLVQAGGSLRLSCADSGRIFYYYTMGWYRQAPGKERELVARINSSGSTNLRRLCEGALHNFTRQCEEYRLFTDEQPETGRYRVYYCNADTKRSSREYDYWGQGTQVTVSS | low polyreactivity |
| QVQLVESGGGLVQAGGSLRLSCAASGRIFTYYAMRWYRQAPGKERELVAGITGSGASTYYADSVKGRFTISRDNAKNTVYLQMNSLKPEDTAVYYCNAPYVIRPFRGRYDYWGQGTLVTVSS | high polyreactivity |
| QVQLVESGGGLVQAGGSLRLSCAASGRTFRGNAMGWYRQAPGKERELVAAISRSGGRTYYADSVKGRFTISRDNAKNTVYLQMNSLKPEDTAVYYCNARSYRRWGYYKQAPNGDYWGQGTQVTVSS | high polyreactivity |
| QVQLVESGGGLVQAGGSLRLSCAASGSIFVWNAMGWYRPAPGKERELVAAISYTDGSTYYADSVKGRFTISRDNAKNTVYLQMNSLKPVDTAVYYCAAAITPSYTGSEYDYWGQGTQVTVSS | low polyreactivity |
| QVQHVESGGGLFQAGGSHRLSCAASGRTFSKNAMGWYRQAPGKERELVAAINRGGTTKYADSVKGRFTISRDNAKNTVYLQMNSQKPEDTTVYYCAVDRQRAGYPKQYDSWGQGTQVTVSS | low polyreactivity |
| QVQLVESGGGLVQAGGSLRISCAASGYIFGTYAMGWYRQAPGKERELVAAISSTGRTYYADSVKGRFTISLDNAMNNVYLQMNRLKPEYTAVYYCAADVRTPSEGYDYWGQGTQVTVSS | high polyreactivity |
| QVQLVESGGVLDQAGGSLRLSFAASGFTFGAYAMGWYRHAPGKETELVASISWSGGSTYYADSVKGRFTISRDNAKNPVYLQMNSVKPEDTAVYYCNKDFVYPEDDGLFDFWGQGTQVTVSS | low polyreactivity |
| QVQLVESGGGLVQAGGSLRLRCAASGRTIASYTMGWYRQAPGKEREWVAAISKSGGSTYYADSVKGRFTNSRDNAKNTVYLQMNSLKPEDTAVYYCAKRRSGNVRKYDYWGQGTQVTVSS | high polyreactivity |

| Sequence | polyreactivity (PSR sort gate) |
| --- | --- |
| QVQLVESGGGLVQAGGSLRLSCAASGSTFALYTMGWYRQAPGKERELVAAIRYGGGSTYYADSVKGRFTISRDNAKNTVYLQMNSLKPEDTAVYYCARDLYNLYSGSYYWGQGTQVTVSS | low polyreactivity |
| QVQLVESGGGLVQAGGSLRLSCAASGRIFAYYAMGWYRQAPGKERELVAAISSGGTTNYADSVKGRFTISRDNAKNTVYLQMNSLKPEDTAVYYCNADGWRRSRQYYYWGQGTQVTVSS | low polyreactivity |
| QVQLVESGGGLVQAGGSLRLSCAASGLILYSYAMGWYRQAPGKERELVADISSGGITNYADSVKGRFTISRDNAKNTVYLQMNSLKPEDTAVYYCAADTRTSYYNDDYDYWGQGTQVTVSS | low polyreactivity |
| QVQLVESGGGLVQAGGSLRLSCAASGLTFYQNAMGWYRQAPGKEREFVASITRRGGRTYYADSVKGRFTISRDNAKNTVYLQMNSLKPEDTAVYYCAATFPQYQAIKEDYWGQGTQVTVSP | high polyreactivity |
| QVQLVESGGGLVQAGGSLRLICAASGRTFRFYTMGWYRQAPGKERELVAGIRQRGGTTYYADSVKGRFTISRDNAKNTVYLQMNSLKPEDTAVYYCAADVYYPFYSPGFDYWGQGTQVTVSS | high polyreactivity |
| QVQLVESGGGLVQAGGSLRLSCAASGSTFGWNAMGWYRQAPGKERELVAAISSSGGITYYADSVKGRFTISRDNAKNTVYLQMNSLKPEDSAVYYCAAERDDDWVNYWGQGTQVTVSS | low polyreactivity |
| QVQLVESGGGLVQAGGSLRLSCAASGYIFRIYAMGWYRQAPGKERELVARISSGGGTNYADSVKGRFTISRDNAKNTVYLQMNSLKPEDTAVYYCNAGYGSQRGGVFFYRMGYWGQGTQVTVSS | high polyreactivity |
| QVQLVESGGGLVQAGGSHRLSCAASGIIFILYTMGWYRQAPGKERELVATISSGGGSTFYADSVKGRFTISRDNAKNTVYLQMNSLKPEDTAVYYCAAYPVFGYSYDYWGQGTQVTVSS | low polyreactivity |
| QVQLVESGGGLVQAGGSLRLSCAASGRTSFGYAMGWYRQAPGKERELVAVISIGGTTYYADSVKGRFTISRDNAKNTVYLQMNSLKPEDTAVYYCAKDAETYYWGSYKSLYDYWGQGTQVTVSS | low polyreactivity |
| QVQLVESGGGLVQAGGSLRLSCAASGFIVNVYAMVWYRQAPGKERELVAAISTSGSNTYYADSVKGRFTISLDNAKNTVYLQMNSLKPEDTAVYYCNAVRDRVRWHYYAVYYWGQGTQVTVSS | high polyreactivity |
| QVQLVDSGGGLVQAGGSLRLSCAASGSIFGQYTMGWYRQAPGKERELVAAINSSGDSTFYADSVKGRFTISRDNAKNTVYLQMNSLKPEDTAVYFCAADPYRYYFRAYGWHREGYYWGQGTQVTVSS | low polyreactivity |
| QVQLVESGGGLVQAGGSLRLSCSASGFTSRKNAMGWYRQAPGKERELVAAITQSSGRTYYADSVKGRFTISRDNAKNTVYLQMNSLKPEDTAVYYCAARRGGEDDYWGQGTQVTVSS | low polyreactivity |
| QVQLQESGGGLVQAGGSLRLTCAASGSIFDGFNMGWYRQAPGKDREFVDAISYGASTYYADSVKGRFTVSRDNAINSVYLQMNSLKPEDTALYYWAVYDELYHVLVYWGRGTQVTVSS | low polyreactivity |
| QVQLVESVGGLVQAGGSLRLSCAASGSTFWFYTMGWYRQAPGKERELVATITSGGSTNYADSVKGRFTISRDNAKNTVYLQMNSLKPEDTAVYYCAASSVLTNHDYWGQGTQVTVSS | low polyreactivity |
| QVQLVESGGGLVQAGGSLRLSFAASGFTFCIYAMGWYRQAPGKERELVAAINVSEGSTYYADSVKGRFTISRDNAKNTVYLQMNSLKPEDTAVYYCDAYLYDTIYTSYREYDYWGQGTQVTVSS | low polyreactivity |
| QLQLVESGGGLVQAGGSLLLSCAASGITFPANAMGWYRQAPGKERELVAAITGRGGRTYYADSVKGRFTISRYYAKNTVYLQMISLKPEDTAVYYCNAYLWRVTQNYDYWGQGTQVTVSS | high polyreactivity |
| QVQLVDSGGGLVQAGGSLRLSCAASGLTIPVYTMVWYRHAPGTEREFVAAITYNGGRTYYADCVKGRFTISRDNAKNTVYLQMNSLKPEDTAVYYCAAEYGTYFVRYYAGASYRYGYWGQGTQVTVSS | low polyreactivity |
| QVQLVESGGGLVQAGGSLRLSCAASGSIFYGYAMGWYRQAPGKERELVAAISYSGDRTYYADSVKGRFTISRDNAKNTVYLQMNSLKPEDTAVYYCAARKHGGTVRGRRDYWGQGTQVTVSS | high polyreactivity |
| QVQLVESGGGLVQAGGSLRLSCAASGFTFYYYAMGWYRQAPGKERELVAAITWSGDSTNYADSVKGRFTISRDNAKNSVYLQMNSLKPEDTAVYYCATESYDSYGLYDYWGQGTQVTVSS | low polyreactivity |
| QVQLVESGGGLVQAGGSLRLSCASSGFTFYKYVMGGYRQDPGKEREMVAASSRSGGSTYYADSVKGRFTISRDNAKNTVYLQMNSLIPEDTAVYSCAKDSCGAPEGPYDYWGQGTQVTVSS | high polyreactivity |
| QVQLVESGGGIVQAGGSLRLSCAASGSTFWIYAMGWYRQAPGKERELVAAISWRGGRTYYADSVKGRFTISRDNAKNTVYLQMNSLKPQDTAVYYCNAQKRDGSMGYWGQGTQVTVSS | high polyreactivity |
